B1: Plastid division protein PDV2 (Arabidopsis thaliana (Mouse-ear cress)), Q9XII1 (parent)
chain: MEDEEGIGLILARATELRLKISDCIDNSSTTVSDNGDGNEDLSPGEGRKSEIIGNQDKDFDSISSEDVDEAEAERLLRIRDALEALESQLASLQNLRQRQQYEKQLALSEIDYSRKMLLEKLKEYKGKDFEVLRETTTFAGERVDYENDLLLPPYPVHPPLSLGLDNNNGYLSHLPSKKKSDANGFGSGHVRNEAEAKSPNGGSGGSSHGVIRFLGSVAKIVLPIIGVISLLSASGYGPEMRKRGASLNLFGLLPHRATRGKRTPNQCPPGKVLVIEDGEARCLVKERVEIPFDSVVAKRDVTYGYG
partner: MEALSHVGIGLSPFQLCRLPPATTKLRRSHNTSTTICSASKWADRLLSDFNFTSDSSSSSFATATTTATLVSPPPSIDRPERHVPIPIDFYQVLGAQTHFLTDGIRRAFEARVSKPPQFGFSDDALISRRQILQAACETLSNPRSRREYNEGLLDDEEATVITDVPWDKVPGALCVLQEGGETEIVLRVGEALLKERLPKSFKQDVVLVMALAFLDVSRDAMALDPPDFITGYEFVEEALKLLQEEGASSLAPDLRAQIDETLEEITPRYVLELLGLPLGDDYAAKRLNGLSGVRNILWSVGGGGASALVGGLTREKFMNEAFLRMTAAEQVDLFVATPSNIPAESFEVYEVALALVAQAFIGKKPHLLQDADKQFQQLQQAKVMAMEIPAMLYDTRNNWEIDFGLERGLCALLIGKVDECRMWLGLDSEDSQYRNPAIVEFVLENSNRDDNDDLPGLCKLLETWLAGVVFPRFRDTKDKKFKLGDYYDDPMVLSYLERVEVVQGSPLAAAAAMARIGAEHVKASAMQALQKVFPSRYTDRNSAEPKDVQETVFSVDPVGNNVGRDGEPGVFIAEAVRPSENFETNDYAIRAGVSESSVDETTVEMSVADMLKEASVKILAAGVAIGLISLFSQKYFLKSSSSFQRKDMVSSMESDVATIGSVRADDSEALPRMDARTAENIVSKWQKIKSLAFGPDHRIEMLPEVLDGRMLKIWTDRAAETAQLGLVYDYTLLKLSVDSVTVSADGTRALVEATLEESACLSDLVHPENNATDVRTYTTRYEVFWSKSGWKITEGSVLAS

Variants of: B1
Details: with arc6_arath ARC6, Q9FIG9

Row | Variant | effect of a mutation on the interaction
1 | G307D | decreasing interaction
